Measurements: patent US20200055930A1 (Pfizer, published 2020)
Values joined by “and” are separate entries in the source; they are usually repeats but may differ in a detail not shown here. Identical values can stand only once.

T1: Mouse Fc-human GDF15 (Mu IgG1Fc_Fxa_Hu GDF15) (human (GDF15 part))
T1 construct: Whole fusion entry; also called Murine dimeric IgG1 Fc-human GDF-15 with FXa cleavage site; control human GDF15
T1 chain: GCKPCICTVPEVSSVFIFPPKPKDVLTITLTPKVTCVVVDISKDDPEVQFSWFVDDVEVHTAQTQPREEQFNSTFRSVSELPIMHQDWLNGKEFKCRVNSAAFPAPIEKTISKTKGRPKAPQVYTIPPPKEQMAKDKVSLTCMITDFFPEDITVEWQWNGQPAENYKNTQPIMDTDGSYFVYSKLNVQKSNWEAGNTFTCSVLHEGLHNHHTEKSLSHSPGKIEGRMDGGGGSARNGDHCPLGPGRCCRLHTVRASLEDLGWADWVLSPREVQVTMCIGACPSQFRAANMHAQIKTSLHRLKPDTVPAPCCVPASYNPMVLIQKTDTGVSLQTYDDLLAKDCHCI

T2: Mouse Fc-cynomolgus monkey GDF15 (Mu IgG1Fc_Fxa_Cyno GDF15) (cynomolgus monkey (GDF15 part))
T2 construct: Whole fusion entry; also called Murine dimeric IgG1 Fc-cyno GDF-15 with FXa cleavage site
T2 chain: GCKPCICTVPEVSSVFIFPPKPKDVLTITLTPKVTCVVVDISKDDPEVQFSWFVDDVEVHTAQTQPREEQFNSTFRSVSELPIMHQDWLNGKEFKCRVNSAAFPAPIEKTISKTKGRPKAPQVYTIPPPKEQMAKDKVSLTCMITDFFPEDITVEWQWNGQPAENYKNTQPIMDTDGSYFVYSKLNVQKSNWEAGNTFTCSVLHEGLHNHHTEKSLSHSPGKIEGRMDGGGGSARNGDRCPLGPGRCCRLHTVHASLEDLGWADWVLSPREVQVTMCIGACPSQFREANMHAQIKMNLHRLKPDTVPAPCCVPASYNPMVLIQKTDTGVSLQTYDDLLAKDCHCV


Legend:
[1] = biological target: T1, Mouse Fc-human GDF15 (Mu IgG1Fc_Fxa_Hu …); assay: SPR BIAcore T200 37C; Fc-GDF15 captured, IgG analyte
Protocol: Mouse Fc-human GDF15 (Mu IgG1Fc_Fxa_Hu GDF15; SEQ ID NO:2), Mouse Fc-mouse GDF15 (Mu IgG1Fc_Fxa_Mu GDF15; SEQ ID NO:5) and Mouse Fc-cynomolgus monkey GDF15 (Mu IgG1Fc_Fxa_Cyno GDF15; SEQ ID NO:4) were captured onto three different flow cells of a CM4 sensorchip (catalogue number BR100534, GE Healthcare) surface using the Mouse Antibody Capture Kit (BR100838, GE Healthcare) according to the manufacturer's protocol. The running and sample buffer was 10 mM HEPES pH 7.4, 0.15M NaCl, 3 mM EDTA, 0.05% P-20 (HBS-EP+). The final capture levels of Mu IgG1Fc_Fxa_Hu GDF15, Mu IgG1Fc_Fxa_Mu GDF15 and Mu IgG1Fc_Fxa_Cyno GDF15 were 40 resonance units (RU), 32 RU and 25 RU respectively. Flow cell 1 was used as a reference flow cell. […] The dissociation was monitored for 2.8 hours and the surface was regenerated with 10 mM Glycine pH 1.7. Binding affinities and rate constants were determined for murine and cynomolgus monkey GDF15 by fitting the resulting sensorgram data to a 1:1 Langmuir model in BIAcore T200 Evaluation software version 2.0 (GE Healthcare). […]

[2] = biological target: T2, Mouse Fc-cynomolgus monkey GDF15 (Mu …); assay: SPR BIAcore T200 37C; Fc-GDF15 captured, monomeric Fc-Fab analyte
From the text: (§1) To understand the KD value, without the avidity effect, of GDF15_001 binding to GDF15, monomeric Fc-Fab was produced and tested in the same assay used in Example 2. […] Mu IgG1Fc_Fxa_Hu GDF15, Mu IgG1Fc_Fxa_Mu GDF15 and Mu IgG1Fc_Fxa_Cyno GDF15 were captured onto three different flow cells of a CM4 sensorchip (catalogue number BR100534, GE Healthcare) surface using the Mouse Antibody Capture Kit (BR100838, GE Healthcare) according to the manufacturer's protocol. The running and sample buffer was 10 mM HEPES pH 7.4, 0.15M NaCl, 3 mM EDTA, 0.05% P-20 (HBS-EP+). The final capture levels of Mu IgG1Fc_Fxa_Hu GDF15, Mu IgG1Fc_Fxa_Mu GDF15 and Mu IgG1Fc_Fxa_Cyno GDF15 were 19 resonance units (RU), 22 RU and 19 RU respectively. Flow cell 1 was used as a reference flow cell. […] The dissociation was monitored for 1200 seconds and the surface was regenerated with 10 mM Glycine pH 1.7. Binding affinities and rate constants were determined by fitting the resulting sensorgram data to a 1:1 Langmuir model in BIAcore T200 Evaluation software version 2.0 (GE Healthcare).

[3] = biological target: T1, Mouse Fc-human GDF15 (Mu IgG1Fc_Fxa_Hu …); assay: as above
From the text: as §1

[4] = biological target: Mouse Fc-mouse GDF15 (Mu IgG1Fc_Fxa_Mu GDF15) (mouse (GDF15 part)); assay: as above
[5] = biological target: Mouse Fc-mouse GDF15 (Mu IgG1Fc_Fxa_Mu GDF15) (mouse (GDF15 part)); assay: SPR BIAcore T200 37C; Fc-GDF15 captured, monomeric Fc-Fab analyte; average
[6] = biological target: Mouse Fc-mouse GDF15 (Mu IgG1Fc_Fxa_Mu GDF15) (mouse (GDF15 part)); assay: SPR BIAcore T200 37C; Fc-GDF15 captured, monomeric Fc-Fab analyte; murine GDF15 ligand (Mu IgG1Fc_Fxa_Mu GDF15), second run
[7] = biological target: Mouse Fc-mouse GDF15 (Mu IgG1Fc_Fxa_Mu GDF15) (mouse (GDF15 part)); assay: SPR BIAcore T200 37C; Fc-GDF15 captured, monomeric Fc-Fab analyte; murine GDF15 ligand (Mu IgG1Fc_Fxa_Mu GDF15), first run

| Binder | T½ [1] | also measured |
| --- | --- | --- |
| GDF15_0297 (antibody, mouse IgG1, kappa, V domains shown, also called GDF15_297; GDF_0297) VH: QVQLQQPGAELVKPGASVKMSCKASGYPFEGWYIHWVKQRPGQGLEWMGWNNPRTGLTNHAQKFQGKVTMTRDTSSSTAYMQLSSLTSEDSAVYYCARGVGADAAFDIWGQGTTLTVSS VL: DIVMTQSPSSLSVSAGEKVTMSCRSSQSLLWKHGYNYLDWYQQKPGQPPKLLIYLDRNRAHGVPDRFTGSGSGTDFTLTISSVQAEDLAVYYCMQSFETPITFGGGTKLEIKR | 17.7 h and 14.9 h |  |
| monomeric GDF15_001 (Fab, V domains shown, only the variable domains of GDF15_001 are tied to it; also called CH23LS-GDF15_001; CH23LS-GBT-GDF15_001) VH: QVQLVQSGAEVKKPGSSVKVSCKASGYTFSSYNIDWVRQAPGQGLEWMGGINPIFGTAFYNQKFQGRVTITADESTSTAYMELSSLRSEDTAVYYCAREAITTVGAMDHWGQGTLVTVSS VL: EIVLTQSPATLSLSPGERATLSCRTSQSVHNYLAWYQQKPGQAPRLLIYDASTRADGIPARFSGSGSGTDFTLTISSLEPEDFAVYYCQQFWSWPWTFGQGTKVEIK |  | T½ [2]: 2.57 h and 2.05 h; T½ [3]: 8.54 h and 4.2 h; T½ [4]: 3.39 min and 3.73 min; koff [4]: 0.00341 s⁻¹ and 0.0031 s⁻¹; kon [4]: 1.62e+06 M⁻¹ s⁻¹ and 1.7e+06 M⁻¹ s⁻¹; Kd [5]: 1.97 nM; koff [5]: 0.00326 s⁻¹; kon [5]: 1.66e+06 M⁻¹ s⁻¹; Kd [6]: 1.82 nM; Kd [7]: 2.11 nM |
| GDF15_014 (antibody, human IgG1, kappa, V domains shown, Tested in bivalent format) VH: QVQLVQSGAEVKKPGSSVKVSCKASGYTFSSYNIDWVRQAPGQGLEWMGQINPINGLAFYNQKFQGRVTITADESTSTAYMELSSLRSEDTAVYYCAREAITTVGAMDYWGQGTLVTVSS VL: EIVLTQSPATLSLSPGERATLSCRTSQNVHNYLAWYQQKPGQAPRLLIYDASNRATGIPARFSGSGSGTDFTLTISSLEPEDFAVYYCQQFWSDPYTFGQGTKVEIKR | 10.7 h and 13 h |  |
| GDF15_020 (antibody, human IgG1, kappa, V domains shown, Tested in bivalent format) VH: QVQLVQSGAEVKKPGSSVKVSCKASGYTFSDYNMDWVRQAPGQGLEWMGQINPNNGLANYNQKFQGRVTITADESTSTAYMELSSLRSEDTAVYYCAREAITTVGAMDYWGQGTLVTVSS VL: EIVLTQSPATLSLSPGERATLSCRASQNLHSYLAWYQQKPGQAPRLLIYDASTRADGIPARFSGSGSGTDFTLTISSLEPEDFAVYYCQQFWSDPYTFGQGTKVEIKR | 2.03 h and 1.7 h |  |
| GDF15_021 (antibody, human IgG1, kappa, V domains shown, Tested in bivalent format) VH: QVQLVQSGAEVKKPGSSVKVSCKASGYTFSSYNIDWVRQAPGQGLEWMGGINPINGLIFFNQKFQGRVTITADESTSTAYMELSSLRSEDTAVYYCAREAITTVGAMDHWGQGTLVTVSS VL: EIVLTQSPATLSLSPGERATLSCRTSENVHSYLAWYQQKPGQAPRLLIYDASNLADGIPARFSGSGSGTDFTLTISSLEPEDFAVYYCQQFWSDPYTFGQGTKVEIKR | 0.661 h and 0.547 h |  |
| GDF15_003 (antibody, human IgG1, kappa, V domains shown, Tested in bivalent format) VH: QVQLVQSGAEVKKPGSSVKVSCKASGYTFTSYNIDWVRQAPGQGLEWMGQINPNNGLAFYNQKFQGRVTITADESTSTAYMELSSLRSEDTAVYYCAREQITTVGAMDYWGQGTLVTVSS VL: EIVLTQSPATLSLSPGERATLSCRASQSLSSYLAWYQQKPGQAPRLLIYDAKNRADGIPARFSGSGSGTDFTLTISSLEPEDFAVYYCQQFSSDPYTFGQGTKVEIKR | 2.67 h and 2.1 h |  |
| GDF15_022 (antibody, human IgG1, kappa, V domains shown, Tested in bivalent format) VH: QVQLVQSGAEVKKPGSSVKVSCKASGYTFSDYNIDWVRQAPGQGLEWMGQINPNNGLIFFNQKFQGRVTITADESTSTAYMELSSLRSEDTAVYYCAREVITTVGAMDYWGQGTLVTVSS VL: EIVLTQSPATLSLSPGERATLSCRTSQSVHSYLAWYQQKPGQAPRLLIYDAKTRADGIPARFSGSGSGTDFTLTISSLEPEDFAVYYCQQFSSDPYTFGQGTKVEIKR | 10.9 h and 13.3 h |  |
| GDF15_010 (antibody, human IgG1, kappa, V domains shown, Tested in bivalent format) VH: QVQLVQSGAEVKKPGSSVKVSCKASGYTFSDYNIDWVRQAPGQGLEWMGGINPNNGLAFFNQKFQGRVTITADESTSTAYMELSSLRSEDTAVYYCAREAITTVGAMDYWGQGTLVTVSS VL: EIVLTQSPATLSLSPGERATLSCRTSQSLHSYLAWYQQKPGQAPRLLIYDASNRATGIPARFSGSGSGTDFTLTISSLEPEDFAVYYCQQFWNDPWTFGQGTKVEIKR | 13.1 h and 10.8 h |  |
| GDF15_004 (antibody, human IgG1, kappa, V domains shown, Tested in bivalent format) VH: QVQLVQSGAEVKKPGSSVKVSCKASGYTFSSYNIDWVRQAPGQGLEWMGQINPNNGLANYAQKFQGRVTITADESTSTAYMELSSLRSEDTAVYYCAREAITTIGAMDYWGQGTLVTVSS VL: EIVLTQSPATLSLSPGERATLSCRTSESVHSYLAWYQQKPGQAPRLLIYDASTRADGIPARFSGSGSGTDFTLTISSLEPEDFAVYYCQQFWSDPYTFGQGTKVEIKR | 2.7 h and 2.35 h |  |
| GDF15_013 (antibody, human IgG1, kappa, V domains shown, Tested in bivalent format) VH: QVQLVQSGAEVKKPGSSVKVSCKASGYTFSDYNMDWVRQAPGQGLEWMGGINPNNGLAFYNQKFQGRVTITADESTSTAYMELSSLRSEDTAVYYCAREAITTVGAMDYWGQGTLVTVSS VL: EIVLTQSPATLSLSPGERATLSCRTSESVHSYLAWYQQKPGQAPRLLIYDASNRATGIPARFSGSGSGTDFTLTISSLEPEDFAVYYCQQFWNWPWTFGQGTKVEIKR | 2.89 h and 2.56 h |  |
| GDF15_015 (antibody, human IgG1, kappa, V domains shown, Tested in bivalent format) VH: QVQLVQSGAEVKKPGSSVKVSCKASGYTFSDYNMDWVRQAPGQGLEWMGQINPNNGLAFYNQKFQGRVTITADESTSTAYMELSSLRSEDTAVYYCAREAITTVGATDYWGQGTLVTVSS VL: EIVLTQSPATLSLSPGERATLSCRTSQNVHSYLAWYQQKPGQAPRLLIYDASNLADGIPARFSGSGSGTDFTLTISSLEPEDFAVYYCQQFSNDPWTFGQGTKVEIKR | 1.94 h and 1.86 h |  |
| GDF15_017 (antibody, human IgG1, kappa, V domains shown, Tested in bivalent format) VH: QVQLVQSGAEVKKPGSSVKVSCKASGYTFTDYNIDWVRQAPGQGLEWMGQINPNNGLAFYNQKFQGRVTITADESTSTAYMELSSLRSEDNAVYYCAREAITTVGAMDYWGQGTLVTVSS VL: EIVLTQSPATLSLSPGERATLSCRTSQSVHSYLAWYQQKPGQAPRLLIYDAKTRATGIPARFSGSGSGTDFTLTISSLEPEDFAVYYCQQFSSDPYTFGQGTKVEIKR | 2.35 h and 2.22 h |  |
| GDF15_0470 (antibody, human IgG1, kappa, V domains shown, Tested in bivalent format; also called GDF15-470) VH: QVQLVQSGAEVKKPGASVKVSCKASGYPFEGWYIHWVRQAPGQGLEWMGWNNPRTGLTNHAQKFQGRVTMTRDTSISTAYMELSRLRSDDTAVYYCARGVGADAAFDIWGQGTMVTVSS VL: EIVLTQSPATLSLSPGERATLSCRSSQSLLWKHGYNYLDWYQQKPGQAPRLLIYLDRNRAHGIPARFSGSGSGTDFTLTISSLEPEDFAVYYCMQSFETPITFGQGTKVEIKR | 3.7 h and 4.47 h |  |
